From publication PMC4453921, “Crystal structure of caspase recruiting domain (CARD) of apoptosis repressor with CARD (ARC) and its implication in inhibition of apoptosis” (Scientific Reports, 2015)

Target: the molecule itself
Assay: SEC-MALS; Superdex 200 HR 10/30 equilibrated in appropriate buffer, coupled to three-angle light scattering and refractive index detectors, 0.2 ml/min

B1: ARC CARD domain (amino acids 1-95), wild type (domain or fragment, human, UniProt O60936 1-95, looked up)
chain: MGNAQERPSETIDRERKRLVETLQADSGLLLDALLARGVLTGPEYEALDALPDAERRVRRLLLLVQGKGEAACQELLRCAQRTAGAPDPAWDWQH
notes: Apoptosis repressor with caspase recruiting domain (ARC), human (208 amino acids), CARD domain, amino acids 1-95; Expression and purification are said to be described in detail elsewhere; A selenomethionine-substituted form was made for SAD phasing; also called CARD domain of ARC; caspase recruiting domain of apoptosis repressor with CARD; not shown: His-tag, C-terminal, kept
- stoichiometry N: 2
